This note sets out measurements from article PMC7154896, “The Effect of Recombinant Tags on Citrus paradisi Flavonol-Specific 3-O Glucosyltransferase Activity” (Plants, 2020).

The target of one data set is T1, tagged Cp3GT (Citrus x paradisi, UniProt C5MR71).
T1 construct: recombinant, Pichia pastoris X-33 (pPicZa), C-terminal thrombin site and c-myc/6x His tags kept; cobalt IMAC
T1 sequence (C5MR71 1-468): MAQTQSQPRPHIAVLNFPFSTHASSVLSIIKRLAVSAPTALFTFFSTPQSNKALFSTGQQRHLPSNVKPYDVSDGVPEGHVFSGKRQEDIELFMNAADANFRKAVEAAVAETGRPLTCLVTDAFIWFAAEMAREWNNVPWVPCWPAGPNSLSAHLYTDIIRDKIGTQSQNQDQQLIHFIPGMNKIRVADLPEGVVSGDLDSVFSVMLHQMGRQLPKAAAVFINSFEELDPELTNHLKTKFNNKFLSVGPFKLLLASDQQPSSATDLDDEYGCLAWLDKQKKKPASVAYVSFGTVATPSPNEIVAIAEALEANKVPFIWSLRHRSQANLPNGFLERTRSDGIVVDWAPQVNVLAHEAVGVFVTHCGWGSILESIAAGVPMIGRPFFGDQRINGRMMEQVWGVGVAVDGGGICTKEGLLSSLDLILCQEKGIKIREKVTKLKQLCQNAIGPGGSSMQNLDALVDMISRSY
The data set is described as follows: glucosyltransferase assay, UDP inhibition. It counts as biochemical.

Another data set deals with T2, untagged Cp3GT (Citrus x paradisi, UniProt C5MR71).
T2 construct: recombinant, Pichia pastoris X-33 (pPicZa), C-terminal c-myc/6x His tags cut off with thrombin; cobalt IMAC; 56 kDa on gel
T2 sequence (C5MR71 1-468): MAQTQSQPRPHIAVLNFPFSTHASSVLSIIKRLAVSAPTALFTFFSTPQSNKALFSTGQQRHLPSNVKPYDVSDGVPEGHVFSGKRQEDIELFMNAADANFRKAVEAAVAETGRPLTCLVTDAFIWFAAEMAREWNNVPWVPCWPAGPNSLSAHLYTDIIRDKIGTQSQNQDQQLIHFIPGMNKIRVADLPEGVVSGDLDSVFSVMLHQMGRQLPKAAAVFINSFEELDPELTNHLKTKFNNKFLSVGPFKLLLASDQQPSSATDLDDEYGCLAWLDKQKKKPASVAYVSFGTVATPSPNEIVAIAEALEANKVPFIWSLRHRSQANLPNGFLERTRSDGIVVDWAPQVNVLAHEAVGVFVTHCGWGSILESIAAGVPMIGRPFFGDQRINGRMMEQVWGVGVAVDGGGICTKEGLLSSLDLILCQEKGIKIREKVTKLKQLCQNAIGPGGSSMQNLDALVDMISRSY
The data set can be described thus: glucosyltransferase assay, UDP inhibition. It counts as biochemical.

Substrate in data set [1]: O=c1ccn([C@@H]2O[C@H](CO[P@@](=O)(O)O[P@@](=O)(O)O[C@H]3O[C@H](CO)[C@@H](O)[C@H](O)[C@H]3O)[C@@H](O)[C@H]2O)c(=O)[nH]1
The data set can be described thus: glucosyltransferase assay, Lineweaver-Burk. Conditions: UDP-glucose varied 0–1333 µM, non-limiting acceptor (not named), 30 °C, pH 7.5, µM. It counts as biochemical, Citrus x paradisi. From the text:
(§1) glucosyltransferase assay, Lineweaver-Burk on tagged Cp3GT

Substrate in data set [2]: O=c1c(O)c(-c2ccc(O)c(O)c2)oc2cc(O)cc(O)c12
The data set can be described thus: glucosyltransferase assay, Lineweaver-Burk. To be noted: acceptor varied 0–667 µM, non-limiting UDP-glucose, 30 °C, pH 7.5, µM. It counts as biochemical, Citrus x paradisi.
Excerpt: as §1

Substrate in the data set “purified protein”: O=c1c(O)c(-c2ccc(O)cc2)oc2cc(O)cc(O)c12
The data set is described as follows: purified protein. Conditions: acceptor varied 0–667 µM, non-limiting UDP-glucose, 30 °C, pH 7.5, µM.

Substrate in data set [3]: O=c1ccn([C@@H]2O[C@H](CO[P@@](=O)(O)O[P@@](=O)(O)O[C@H]3O[C@H](CO)[C@@H](O)[C@H](O)[C@H]3O)[C@@H](O)[C@H]2O)c(=O)[nH]1
The data set can be described thus: glucosyltransferase assay, Lineweaver-Burk. Conditions: UDP-glucose varied 0–1333 µM, non-limiting acceptor (not named), 30 °C, pH 7.5, µM. It counts as biochemical, Citrus x paradisi. From the text:
(§2) glucosyltransferase assay, Lineweaver-Burk on untagged Cp3GT
The source holds these as a separate data set.

Substrate in data set [4]: O=c1c(O)c(-c2ccc(O)c(O)c2)oc2cc(O)cc(O)c12
The data set can be described thus: glucosyltransferase assay, Lineweaver-Burk. To be noted: acceptor varied 0–667 µM, non-limiting UDP-glucose, 30 °C, pH 7.5, µM. It counts as biochemical, Citrus x paradisi.
Excerpt: as §2
This is another data set of the same source.

Usually Ki stands for a dissociation constant, usually derived from enzyme kinetics or from competition with a known ligand. Low values mean higher affinity, high ones lower affinity. With `O=c1ccn([C@@H]2O[C@H](COP(=O)(O)OP(=O)(O)O)[C@@H](O)[C@H]2O)c(=O)[nH]1` [UDP], the inhibition constant (Ki) was determined as 61.8 µM on tagged Cp3GT and 73.1 µM at untagged Cp3GT.

B1: tagged Cp3GT (Citrus x paradisi) (protein)
chain: MAQTQSQPRPHIAVLNFPFSTHASSVLSIIKRLAVSAPTALFTFFSTPQSNKALFSTGQQRHLPSNVKPYDVSDGVPEGHVFSGKRQEDIELFMNAADANFRKAVEAAVAETGRPLTCLVTDAFIWFAAEMAREWNNVPWVPCWPAGPNSLSAHLYTDIIRDKIGTQSQNQDQQLIHFIPGMNKIRVADLPEGVVSGDLDSVFSVMLHQMGRQLPKAAAVFINSFEELDPELTNHLKTKFNNKFLSVGPFKLLLASDQQPSSATDLDDEYGCLAWLDKQKKKPASVAYVSFGTVATPSPNEIVAIAEALEANKVPFIWSLRHRSQANLPNGFLERTRSDGIVVDWAPQVNVLAHEAVGVFVTHCGWGSILESIAAGVPMIGRPFFGDQRINGRMMEQVWGVGVAVDGGGICTKEGLLSSLDLILCQEKGIKIREKVTKLKQLCQNAIGPGGSSMQNLDALVDMISRSY
notes: recombinant, Pichia pastoris X-33 (pPicZa), C-terminal thrombin site and c-myc/6x His tags kept; cobalt IMAC
In general, Km refers to the concentration of substrate that gives half-maximal velocity. As usually defined, the kcat is the maximal rate divided by the concentration of active sites. Usually kcat/Km stands for the second-order rate constant that governs catalysis at low substrate concentration. In the case of B1, the figures for the Km (in data set [1]; in data set [2]; in the data set “purified protein”) were 49.7 ± 5.32 µM, 51.9 ± 8.29 µM and 44.1 ± 3.41 µM, respectively. In addition, the kcat in data set [1] was 0.637 ± 0.092 s⁻¹; in data set [2] it was 1.84 ± 0.19 s⁻¹; in “purified protein”, 1.28 s⁻¹. Moreover, the kcat/Km in data set [1] was 12000 ± 2000 M⁻¹ s⁻¹; in data set [2], 35000 ± 1000 M⁻¹ s⁻¹; in “purified protein”, 29000 M⁻¹ s⁻¹.

B2: untagged Cp3GT (Citrus x paradisi) (protein)
chain: MAQTQSQPRPHIAVLNFPFSTHASSVLSIIKRLAVSAPTALFTFFSTPQSNKALFSTGQQRHLPSNVKPYDVSDGVPEGHVFSGKRQEDIELFMNAADANFRKAVEAAVAETGRPLTCLVTDAFIWFAAEMAREWNNVPWVPCWPAGPNSLSAHLYTDIIRDKIGTQSQNQDQQLIHFIPGMNKIRVADLPEGVVSGDLDSVFSVMLHQMGRQLPKAAAVFINSFEELDPELTNHLKTKFNNKFLSVGPFKLLLASDQQPSSATDLDDEYGCLAWLDKQKKKPASVAYVSFGTVATPSPNEIVAIAEALEANKVPFIWSLRHRSQANLPNGFLERTRSDGIVVDWAPQVNVLAHEAVGVFVTHCGWGSILESIAAGVPMIGRPFFGDQRINGRMMEQVWGVGVAVDGGGICTKEGLLSSLDLILCQEKGIKIREKVTKLKQLCQNAIGPGGSSMQNLDALVDMISRSY
notes: recombinant, Pichia pastoris X-33 (pPicZa), C-terminal c-myc/6x His tags cut off with thrombin; cobalt IMAC; 56 kDa on gel
B2: in “purified protein”, the Km is recorded as 53.7 ± 10.6 µM, the kcat stood at 1.34 s⁻¹ and the kcat/Km came to 25000 M⁻¹ s⁻¹. Moreover, in data set [3], the Michaelis constant (Km) is recorded as 55.0 ± 4.97 µM, the kcat is 0.738 ± 0.125 s⁻¹ and the kcat/Km stood at 12000 ± 400 M⁻¹ s⁻¹. Moreover, in data set [4], the Km was 42.4 ± 3.48 µM, the kcat was determined as 1.54 ± 0.06 s⁻¹ and the kcat/Km was 36000 ± 1000 M⁻¹ s⁻¹.
